Source: the supplement of paper PMC5998384

Columns and labels:
HeLa Kyoto [1] = assay: solubility in G1/S (NP-40 vs SDS abundance) (log2 ratio); higher = more soluble; conditions: cell cycle stage: G1/S
HeLa Kyoto [2] = assay: solubility change mitosis vs G1/S (difference of NP-40 vs SDS log2 ratios) (log2 ratio difference); higher = more soluble in mitosis
HeLa Kyoto [3] = assay: melting temperature (median over replicates), in situ; higher = more thermally stable
HeLa Kyoto [4] = assay: thermal stability score vs G1/S (z-score of summed log2 fold changes over temperatures); higher = more thermally stable than in G1/S
[5] = cell cycle stage: early G1 (4.5 h after nocodazole release)
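Wherever melting temperature (median over replicates), in situ is given: HeLa Kyoto cells synchronized by double thymidine or nocodazole block, proteins quantified by TMT10plex mass spectrometry, three independent biological replicates.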
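Wherever solubility change mitosis vs G1/S (difference of NP-40 vs SDS log2 ratios) is given: synchronized HeLa Kyoto cells (double thymidine block for G1/S, nocodazole release for mitosis), protein amounts in NP-40 versus SDS lysates quantified by mass spectrometry, three biological replicates.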
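Wherever solubility in G1/S (NP-40 vs SDS abundance) is given: HeLa Kyoto cells arrested at G1/S by double thymidine block, proteins quantified by TMT10plex mass spectrometry in mild NP-40 versus SDS extracts, three biological replicates.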
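Wherever thermal stability score vs G1/S (z-score of summed log2 fold changes over temperatures) is given: synchronized HeLa Kyoto cells, proteins quantified by TMT10plex mass spectrometry, three biological replicates, mitosis taken 0.5 h after nocodazole release, G1/S directly after double thymidine block.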

Sequence | solubility in G1/S (log2) (HeLa Kyoto [1]) | solubility change mitosis (log2) (HeLa Kyoto [2]) | melting temperature (HeLa Kyoto [3]; cell cycle stage: G1/S) [°C] | melting temperature (HeLa Kyoto [3]; cell cycle stage: mitosis) [°C] | thermal stability score (HeLa Kyoto [4]; [5]) | thermal stability score (HeLa Kyoto [4]; cell cycle stage: mitosis)
MAQEVSEYLSQNPRVAAWVEALRCDGETDKHWRHRRDFLLRNAGDLAPAGGAASASTDEAADAESGTRNRQLQQLISFSMAWANHVFLGCRYPQKVMDKILSMAEGIKVTDAPTYTTRDELVAKVKKRGISSSNEGVEEPSKKRVIEGKNSSAVEQDHAKTSAKTERASAQQENSSTCIGSAIKSESGNSARSSGISSQNSSTSDGDRSVSSQSSSSVSSQVTTAGSGKASEAEAPDKHGSASFVSLLKSSVNSHMTQSTDSRQQSGSPKKSALEGSSASASQSSSEIEVPLLGSSGSSEVELPLLSSKPSSETASSGLTSKTSSEASVSSSVAKNSSSSGTSLLTPKSSSSTNTSLLTSKSTSQVAASLLASKSSSQTSGSLVSKSTSLASVSQLASKSSSQTSTSQLPSKSTSQSSESSVKFSCKLTNEDVKQKQPFFNRLYKTVAWKLVAVGGFSPNVNHGELLNAAIEALKATLDVFFVPLKELADLPQNKSSQESIVCELRCKSVYLGTGCGKSKENAKAVASREALKLFLKKKVVVKICKRKYRGSEIEDLVLLDEESRPVNLPPALKHPQELL [CDKN2AIP] | -0.0572 | -0.0367 | 50.2 | 50.8 | 1.13 | 1.43
MAQFGGQKNPPWATQFTATAVSQPAALGVQQPSLLGASPTIYTQQTALAAAGLTTQTPANYQLTQTAALQQQAAAAAAALQQQYSQPQQALYSVQQQLQQPQQTLLTQPAVALPTSLSLSTPQPTAQITVSYPTPRSSQQQTQPQKQRVFTGVVTKLHDTFGFVDEDVFFQLSAVKGKTPQVGDRVLVEATYNPNMPFKWNAQRIQTLPNQNQSQTQPLLKTPPAVLQPIAPQTTFGVQTQPQPQSLLQAQISAASITPLLQTQPQPLLQQPQQKAGLLQPPVRIVSQPQPARRLDPPSRFSGRNDRGDQVPNRKDDRSRERERERRRSRERSPQRKRSRERSPRRERERSPRRVRRVVPRYTVQFSKFSLDCPSCDMMELRRRYQNLYIPSDFFDAQFTWVDAFPLSRPFQLGNYCNFYVMHREVESLEKNMAILDPPDADHLYSAKVMLMASPSMEDLYHKSCALAEDPQELRDGFQHPARLVKFLVGMKGKDEAMAIGGHWSPSLDGPDPEKDPSVLIKTAIRCCKALTGIDLSVCTQWYRFAEIRYHRPEETHKGRTVPAHVETVVLFFPDVWHCLPTRSEWETLSRGYKQQLVEKLQGERKEADGEQDEEEKDDGEAKEISTPTHWSKLDPKTMKVNDLRKELESRALSSKGLKSQLIARLTKQLKVEEQKEEQKELEKSEKEEDEDDDRKSEDDKEEEERKRQEEIERQRRERRYILPDEPAIIVHPNWAAKSGKFDCSIMSLSVLLDYRLEDNKEHSFEVSLFAELFNEMLQRDFGVRIYKSLLSLPEKEDKKEKDKKSKKDERKDKKEERDDETDEPKPKRRKSGDDKDKKEDRDERKKEDKRKDDSKDDDETEEDNNQDEYDPMEAEEAEDEEDDRDEEEMTKRDDKRDINRYCKERPSKDKEKEKTQMITINRDLLMAFVYFDQSHCGYLLEKDLEEILYTLGLHLSRAQVKKLLNKVVLRESCFYRKLTDTSKDEENHEESESLQEDMLGNRLLLPTPTVKQESKDVEENVGLIVYNGAMVDVGSLLQKLEKSEKVRAEVEQKLQLLEEKTDEDEKTILNLENSNKSLSGELREVKKDLSQLQENLKISENMNLQFENQMNKTIRNLSTVMDEIHTVLKKDNVKNEDKDQKSKENGASV [CCAR1] | -0.232 | 0.0916 | 50.9 | 50.8 | 0.304 | 1.74
MAQHFSLAACDVVGFDLDHTLCRYNLPESAPLIYNSFAQFLVKEKGYDKELLNVTPEDWDFCCKGLALDLEDGNFLKLANNGTVLRASHGTKMMTPEVLAEAYGKKEWKHFLSDTGMACRSGKYYFYDNYFDLPGALLCARVVDYLTKLNNGQKTFDFWKDIVAAIQHNYKMSAFKENCGIYFPEIKRDPGRYLHSCPESVKKWLRQLKNAGKILLLITSSHSDYCRLLCEYILGNDFTDLFDIVITNALKPGFFSHLPSQRPFRTLENDEEQEALPSLDKPGWYSQGNAVHLYELLKKMTGKPEPKVVYFGDSMHSDIFPARHYSNWETVLILEELRGDEGTRSQRPEESEPLEKKGKYEGPKAKPLNTSSKKWGSFFIDSVLGLENTEDSLVYTWSCKRISTYSTIAIPSIEAIAELPLDYKFTRFSSSNSKTAGYYPNPPLVLSSDETLISK [NT5DC1] | 0.0982 | -0.212 | 55.5 | 55.7 | 0.00809 | -0.565
MAQLGAVVAVASSFFCASLFSAVHKIEEGHIGVYYRGGALLTSTSGPGFHLMLPFITSYKSVQTTLQTDEVKNVPCGTSGGVMIYFDRIEVVNFLVPNAVYDIVKNYTADYDKALIFNKIHHELNQFCSVHTLQEVYIELFDQIDENLKLALQQDLTSMAPGLVIQAVRVTKPNIPEAIRRNYELMESEKTKLLIAAQKQKVVEKEAETERKKALIEAEKVAQVAEITYGQKVMEKETEKKISEIEDAAFLAREKAKADAECYTAMKIAEANKLKLTPEYLQLMKYKAIASNSKIYFGKDIPNMFMDSAGSVSKQFEGLADKLSFGLEDEPLETATKEN [ERLIN2] | 0.0653 | -0.0221 | 52.7 | 53.2 | 2.26 | 1.92
MAQRGGARRPRGDRERLGSRLRALRPGREPRQSEPPAQRGPPPSGRPPARSTASGHDRPTRGAAAGARRPRMKKKTRRRSTRSEELTRSEELTLSEEATWSEEATQSEEATQGEEMNRSQEVTRDEESTRSEEVTREEMAAAGLTVTVTHSNEKHDLHVTSQQGSSEPVVQDLAQVVEEVIGVPQSFQKLIFKGKSLKEMETPLSALGIQDGCRVMLIGKKNSPQEEVELKKLKHLEKSVEKIADQLEELNKELTGIQQGFLPKDLQAEALCKLDRRVKATIEQFMKILEEIDTLILPENFKDSRLKRKGLVKKVQAFLAECDTVEQNICQETERLQSTNFALAE [BAG1] | 0.0346 | 0.0327 | 54.3 | 53.7 | 0.492 | -2.14
MAQRHSDSSLEEKLLGHRFHSELRLDAGGNPASGLPMVRGSPRVRDDAAFQPQVPAPPQPRPPGHEEPWPIVLSTESPAALKLGTQQLIPKSLAVASKAKTPARHQSFGAAVLSREAARRDPKLLPAPSFSLDDMDVDKDPGGMLRRNLRNQSYRAAMKGLGKPGGQGDAIQLSPKLQALAEEPSQPHTRSPAKNKKTLGRKRGHKGSFKDDPQLYQEIQERGLNTSQESDDDILDESSSPEGTQKVDATIVVKSYRPAQVTWSQLPEVVELGILDQLSTEERKRQEAMFEILTSEFSYQHSLSILVEEFLQSKELRATVTQMEHHHLFSNILDVLGASQRFFEDLEQRHKAQVLVEDISDILEEHAEKHFHPYIAYCSNEVYQQRTLQKLISSNAAFREALREIERRPACGGLPMLSFLILPMQRVTRLPLLMDTLCLKTQGHSERYKAASRALKAISKLVRQCNEGAHRMERMEQMYTLHTQLDFSKVKSLPLISASRWLLKRGELFLVEETGLFRKIASRPTCYLFLFNDVLVVTKKKSEESYMVQDYAQMNHIQVEKIEPSELPLPGGGNRSSSVPHPFQVTLLRNSEGRQEQLLLSSDSASDRARWIVALTHSERQWQGLSSKGDLPQVEITKAFFAKQADEVTLQQADVVLVLQQEDGWLYGERLRDGETGWFPEDFARFITSRVAVEGNVRRMERLRVETDV [ARHGEF16] | -0.0605 | -0.0697 | 49.4 | 49.5 | 0.0138 | 0.41
MAQRMTTQLLLLLVWVAVVGEAQTRIAWARTELLNVCMNAKHHKEKPGPEDKLHEQCRPWRKNACCSTNTSQEAHKDVSYLYRFNWNHCGEMAPACKRHFIQDTCLYECSPNLGPWIQQVDQSWRKERVLNVPLCKEDCEQWWEDCRTSYTCKSNWHKGWNWTSGFNKCAVGAACQPFHFYFPTPTVLCNEIWTHSYKVSNYSRGSGRCIQMWFDPAQGNPNEEVARFYAAAMSGAGPWAAWPFLLSLALMLLWLLS [FOLR1] | -0.325 | 0.0281 | 58.8 | – | -1.06 | -1.43
MAQSLRLHFAARRSNTYPLSETSGDDLDSHVHMCFKRPTRISTSNVVQMKLTPRQTALAPLIKENVQSQERSSVPSSENVNKKSSCLQISLQPTRYSGYLQSSNVLADSDDASFTCILKDGIYSSAVVDNELNAVNDGHLVSSPAICSGSLSNFSTSDNGSYSSNGSDFGSCASITSGGSYTNSVISDSSSYTFPPSDDTFLGGNLPSDSTSNRSVPNRNTTPCEIFSRSTSTDPFVQDDLEHGLEIMKLPVSRNTKIPLKRYSSLVIFPRSPSTTRPTSPTSLCTLLSKGSYQTSHQFIISPSEIAHNEDGTSAKGFLSTAVNGLRLSKTICTPGEVRDIRPLHRKGSLQKKIVLSNNTPRQTVCEKSSEGYSCVSVHFTQRKAATLDCETTNGDCKPEMSEIKLNSDSEYIKLMHRTSACLPSSQNVDCQININGELERPHSQMNKNHGILRRSISLGGAYPNISCLSSLKHNCSKGGPSQLLIKFASGNEGKVDNLSRDSNRDCTNELSNSCKTRDDFLGQVDVPLYPLPTENPRLERPYTFKDFVLHPRSHKSRVKGYLRLKMTYLPKTSGSEDDNAEQAEELEPGWVVLDQPDAACHLQQQQEPSPLPPGWEERQDILGRTYYVNHESRRTQWKRPTPQDNLTDAENGNIQLQAQRAFTTRRQISEETESVDNRESSENWEIIREDEATMYSNQAFPSPPPSSNLDVPTHLAEELNARLTIFGNSAVSQPASSSNHSSRRGSLQAYTFEEQPTLPVLLPTSSGLPPGWEEKQDERGRSYYVDHNSRTTTWTKPTVQATVETSQLTSSQSSAGPQSQASTSDSGQQVTQPSEIEQGFLPKGWEVRHAPNGRPFFIDHNTKTTTWEDPRLKIPAHLRGKTSLDTSNDLGPLPPGWEERTHTDGRIFYINHNIKRTQWEDPRLENVAITGPAVPYSRDYKRKYEFFRRKLKKQNDIPNKFEMKLRRATVLEDSYRRIMGVKRADFLKARLWIEFDGEKGLDYGGVAREWFFLISKEMFNPYYGLFEYSATDNYTLQINPNSGLCNEDHLSYFKFIGRVAGMAVYHGKLLDGFFIRPFYKMMLHKPITLHDMESVDSEYYNSLRWILENDPTELDLRFIIDEELFGQTHQHELKNGGSEIVVTNKNKKEYIYLVIQWRFVNRIQKQMAAFKEGFFELIPQDLIKIFDENELELLMCGLGDVDVNDWREHTKYKNGYSANHQVIQWFWKAVLMMDSEKRIRLLQFVTGTSRVPMNGFAELYGSNGPQSFTVEQWGTPEKLPRAHTCFNRLDLPPYESFEELWDKLQMAIENTQGFDGVD [NEDD4] | -0.127 | -0.163 | 49.3 | 49.7 | -0.41 | 0.545
MAQTLQMEIPNFGNSILECLNEQRLQGLYCDVSVVVKGHAFKAHRAVLAASSSYFRDLFNNSRSAVVELPAAVQPQSFQQILSFCYTGRLSMNVGDQFLLMYTAGFLQIQEIMEKGTEFFLKVSSPSCDSQGLHAEEAPSSEPQSPVAQTSGWPACSTPLPLVSRVKTEQQESDSVQCMPVAKRLWDSGQKEAGGGGNGSRKMAKFSTPDLAANRPHQPPPPQQAPVVAAAQPAVAAGAGQPAGGVAAAGGVVSGPSTSERTSPGTSSAYTSDSPGSYHNEEDEEEDGGEEGMDEQYRQICNMYTMYSMMNVGQTAEKVEALPEQVAPESRNRIRVRQDLASLPAELINQIGNRCHPKLYDEGDPSEKLELVTGTNVYITRAQLMNCHVSAGTRHKVLLRRLLASFFDRNTLANSCGTGIRSSTNDPRRKPLDSRVLHAVKYYCQNFAPNFKESEMNAIAADMCTNARRVVRKSWMPKVKVLKAEDDAYTTFISETGKIEPDMMGVEHGFETASHEGEAGPSAEALQ [NACC1] | 0.142 | -0.176 | 47.6 | 49.4 | 3.55 | 6.42
